Starred links: 1 amine or outer side, 2 acyl side, 3 side chain; linkers in the order of their positions; H or OH if unused. Non-standard residues stand in square brackets, D forms with d. Groups on a side chain read outwards from the residue. Primed or numbered codes have the meaning given here. No end group written: not given here. *: point of attachment. γGlu = O=C(O)[C@H](CCC(=O)[*:2])N[*:1]; Palmitoyl = CCCCCCCCCCCCCCCC(=O)*; αMeF = C[C@](N)(Cc1ccccc1)C(=O)O; αMeK = C[C@](N)(CCCCN)C(=O)O; Lauroyl = CCCCCCCCCCCC(=O)*; PEG2′ = not defined here; Aib = CC(C)(N)C(=O)O
T1: glucose-dependent insulinotropic peptide (gastric inhibitory polypeptide) receptor (GIPR), primary cAMP assay (human, UniProt P48546 22-466)
T1 sequence (looked up): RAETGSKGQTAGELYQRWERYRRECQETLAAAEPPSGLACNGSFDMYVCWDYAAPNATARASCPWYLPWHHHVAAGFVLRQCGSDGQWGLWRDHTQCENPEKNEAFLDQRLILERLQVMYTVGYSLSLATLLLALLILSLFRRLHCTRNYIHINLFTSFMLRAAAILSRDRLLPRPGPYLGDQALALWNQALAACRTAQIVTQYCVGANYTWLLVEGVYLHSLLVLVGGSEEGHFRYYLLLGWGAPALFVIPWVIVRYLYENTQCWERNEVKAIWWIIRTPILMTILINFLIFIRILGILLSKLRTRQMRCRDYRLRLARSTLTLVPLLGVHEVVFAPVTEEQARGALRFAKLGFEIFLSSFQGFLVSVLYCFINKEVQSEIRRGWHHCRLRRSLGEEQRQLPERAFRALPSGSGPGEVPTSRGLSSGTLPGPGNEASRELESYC

T2: GLP-1R in the INS1e assay (UniProt P32301 22-463, limits assumed)
T2 sequence (looked up): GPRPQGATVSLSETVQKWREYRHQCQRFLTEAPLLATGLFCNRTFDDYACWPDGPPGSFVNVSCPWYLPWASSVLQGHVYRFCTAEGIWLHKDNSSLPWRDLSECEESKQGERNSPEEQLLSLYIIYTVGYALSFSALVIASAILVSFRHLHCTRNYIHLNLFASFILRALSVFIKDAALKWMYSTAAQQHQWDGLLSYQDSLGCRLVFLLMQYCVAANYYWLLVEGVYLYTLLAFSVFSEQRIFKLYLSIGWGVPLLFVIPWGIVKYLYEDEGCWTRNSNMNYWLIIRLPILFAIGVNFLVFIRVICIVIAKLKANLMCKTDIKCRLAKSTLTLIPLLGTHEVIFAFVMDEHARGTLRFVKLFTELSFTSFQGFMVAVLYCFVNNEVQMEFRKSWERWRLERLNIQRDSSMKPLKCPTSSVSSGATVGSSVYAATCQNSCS


Columns and labels:
Test in all cases: cell-based or functional assay
[1] = biological target: GLP-1 receptor (GLP-1R), primary cAMP assay (human, UniProt P43220 24-463)
[2] = biological target: T1, glucose-dependent insulinotropic …
[3] = biological target: glucagon receptor (GCGR), primary cAMP assay (human, UniProt P47871 26-477)
[4] = biological target: T2, GLP-1R in the INS1e assay

glucagon receptor (GCGR), primary cAMP assay, sequence (P47871 26-477): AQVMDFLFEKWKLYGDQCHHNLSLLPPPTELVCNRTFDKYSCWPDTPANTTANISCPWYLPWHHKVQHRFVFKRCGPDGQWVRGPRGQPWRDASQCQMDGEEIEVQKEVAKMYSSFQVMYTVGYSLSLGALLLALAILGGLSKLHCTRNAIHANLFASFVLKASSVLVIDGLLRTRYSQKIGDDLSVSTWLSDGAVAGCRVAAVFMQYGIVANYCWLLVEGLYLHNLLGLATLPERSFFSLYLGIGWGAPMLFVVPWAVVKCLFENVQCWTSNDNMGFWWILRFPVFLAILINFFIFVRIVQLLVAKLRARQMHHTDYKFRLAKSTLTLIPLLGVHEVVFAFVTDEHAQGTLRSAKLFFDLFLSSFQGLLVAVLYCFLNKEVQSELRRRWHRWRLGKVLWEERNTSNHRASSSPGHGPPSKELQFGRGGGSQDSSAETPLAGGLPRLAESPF

Binder	Primary assay EC50 (cAMP) Mean [1]	Primary assay EC50 (cAMP), n1 [1]	Primary assay EC50 (cAMP), n2 [1]	Primary assay EC50 (cAMP), n1 [2]	Primary assay EC50 (cAMP), n2 [2]	Primary assay EC50 (cAMP), n1 [3]	Primary assay EC50 (cAMP), n2 [3]	INS1e assay EC50 (cAMP) Mean [4]	INS1e assay EC50 (cAMP) n1 [4]	INS1e assay EC50 (cAMP) n2 [4]
H[Aib]EGS[αMeF]TSDVSK([PEG2′-PEG2′-γGlu-Lauroyl])YLEGEAA[αMeK]EFIK([PEG2′-PEG2′-γGlu-Lauroyl])WVVEGG-NH2 [SEQ ID NO: 249]	0.0055 nM	0.00447 nM	0.00649 nM	22.1 nM	22.1 nM	22.1 nM	22.1 nM	0.566 nM	0.721 nM	0.41 nM
H[Aib]EGS[αMeF]TSDVSK([PEG2′-PEG2′-γGlu-Lauroyl])FLEGEAA[αMeK]EFIK([PEG2′-PEG2′-γGlu-Lauroyl])FVVEGG-NH2 [SEQ ID NO: 248]	0.005 nM	0.00377 nM	0.0062 nM	22.4 nM	22.4 nM	22.4 nM	22.4 nM	0.403 nM	0.337 nM	0.468 nM
H[Aib]EGS[αMeF]TSDVSK([PEG2′-PEG2′-γGlu-Lauroyl])YLEGEAA[αMeK]EFIAWK([PEG2′-PEG2′-γGlu-Lauroyl])VEGG-NH2 [SEQ ID NO: 253]	0.0206 nM	0.0234 nM	0.0177 nM	22.3 nM	22.3 nM	22.3 nM	22.3 nM	2.11 nM	2.08 nM	2.14 nM
H[Aib]EGS[αMeF]TSDVSK([PEG2′-PEG2′-γGlu-Palmitoyl])FLEGEAAEEFIK([PEG2′-PEG2′-γGlu-Palmitoyl])FVVEGG-NH2 [SEQ ID NO: 247]	1.67 nM	1.31 nM	2.02 nM	21.6 nM	21.6 nM	21.6 nM	21.6 nM	72.1 nM	72.1 nM	72.1 nM
H[Aib]EGS[αMeF]TSDVSK([PEG2′-PEG2′-γGlu-Lauroyl])YLEGEAA[αMeK]EFIAK([PEG2′-PEG2′-γGlu-Lauroyl])VVEGG-NH2 [SEQ ID NO: 252]	0.0025 nM	0.00288 nM	0.00217 nM	22.7 nM	22.7 nM	22.7 nM	22.7 nM	0.175 nM	0.184 nM	0.166 nM
H[Aib]EGS[αMeF]TSDK([PEG2′-PEG2′-γGlu-Lauroyl])SSYLEGEAA[αMeK]EFIAK([PEG2′-PEG2′-γGlu-Lauroyl])VVEGG-NH2 [SEQ ID NO: 257]	0.0084 nM	0.00436 nM	0.0124 nM	22.8 nM	22.8 nM	22.8 nM	22.8 nM	0.577 nM	0.812 nM	0.342 nM
H[Aib]EGS[αMeF]TSDVSK([PEG2′-PEG2′-γGlu-Palmitoyl])YLEGEAA[αMeK]EFIK([PEG2′-PEG2′-γGlu-Palmitoyl])WVVEGG-NH2 [SEQ ID NO: 251]	0.0311 nM	0.016 nM	0.0462 nM	21.3 nM	21.3 nM	21.3 nM	21.3 nM	7.16 nM	6.47 nM	7.85 nM
H[Aib]EGS[αMeF]TSDVSK([PEG2′-PEG2′-γGlu-Lauroyl])FLEGEAAEEFIK([PEG2′-PEG2′-γGlu-Lauroyl])FVVEGG-NH2 [SEQ ID NO: 241]	0.0096 nM	0.00755 nM	0.0116 nM	22.5 nM	22.5 nM	22.5 nM	22.5 nM	6.28 nM	5.84 nM	6.71 nM
H[Aib]EGS[αMeF]TSDVSK([PEG2′-PEG2′-γGlu-Palmitoyl])FLEGEAA[αMeK]EFIK([PEG2′-PEG2′-γGlu-Palmitoyl])FVVEGG-NH2 [SEQ ID NO: 250]	0.0451 nM	0.0292 nM	0.061 nM	21.6 nM	21.6 nM	21.6 nM	21.6 nM	38.1 nM	36.7 nM	39.4 nM
H[Aib]EGS[αMeF]TSDK([PEG2′-PEG2′-γGlu-Lauroyl])SSYLEGEAA[αMeK]EFIK([PEG2′-PEG2′-γGlu-Lauroyl])WVVEGG-NH2 [SEQ ID NO: 256]	0.0075 nM	0.00946 nM	0.00557 nM	22.2 nM	22.2 nM	22.2 nM	22.2 nM	1.29 nM	1.25 nM	1.34 nM
H[Aib]EGS[αMeF]TSDVSK([PEG2′-PEG2′-γGlu-Palmitoyl])YLEGEAAEEFIK([PEG2′-PEG2′-γGlu-Palmitoyl])WVVEGG-NH2 [SEQ ID NO: 246]	1.4 nM	0.999 nM	1.8 nM	21.4 nM	21.4 nM	21.4 nM	21.4 nM	71.3 nM	71.3 nM	71.3 nM
